Experimental data from the supplement of paper PMC12455559.

Experiment: purified protein yield per well (BCA); higher = higher soluble expression
Method in brief: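 The measured quantity is purified protein yield per well, determined with the Pierce Rapid Gold BCA kit. Anything below 25 ug (0.1 mg/mL) lies under the detection threshold. Enzymes were expressed in E. coli C41(DE3) in 2 mL autoinduction cultures with 100 µg/mL kanamycin at 37 °C for 2 h, then 18 °C for 40 h, and purified on an OT-2 robot using Ni-charged magnetic beads and SUMO protease release.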

Purified protein yield per well, < 25 µg:
GASAPAANPYERGPAPTEQALLAPLGSFTYSTVVVPRSQVTGFGGGTIYYPDDTSQGTYGGVVAVPGFVSPEGAVAWLGPHMASRGFVVFTIATTSPFDQPTARGKQLLAALDHLTQRTPDAVRKRLDPARLAVTGHSMGGGGALYASGARPGIKAAIPLAPYNQDKTWNEVATPTLVVGGSADQIASVDKHARPFYNSLTGARDRGLLNVAAADHGDFTQENSITGRYAAAWLKRFVDEDTRYDQYLCPATGGPGVTEYSASCPLS [TEP151], GFGGGMIYYPTDTSQGTFGGIAISPGYTAQFSVELSWMGPWLASHGFVVIGIETNSPTDFDQARGTQLLAALDYLTQQSPVRTRVDASRLAVAGHSMGGGGALNAAIRRPSLKATVGITPFLPSSNLANDHVPTMLIAGQADTVVSTSSVINQYNSLPATTKSVFLEVAGGDHGFMVGRPNTVMVRTMLPFLKIFVDNDSRYSKFLCPLMDSSGITQYRST [ESM170], GGGGGGGGGGNSGDLPAPNPCTANCGFEIGPNPSLSFLRNGPGPLPVSTTTVPRSVDGFGGGTIYYPSNVSREMAAITISPGFTARQGGVAWWGSALASHGFVVMTIDTNSRFDQPASRGRQLDSALSYLISESDRRNSPISGLVDESRLATMGHSMGGGGSLHSASRNRISAAMPLAPWNQSGSGAFNNINVPTMILACESDTTARVGTHAIPFYNRIPNSTDKVYLEINNGNHSCSTGRSGNDRALLRTYGVSWMKRFLDKDGRYNQFLCGPNHTANSSISDFRDTCVF [DP063], GPFAVSSVTVPAGSGPGFNDGTIYYPTDTSQGTFGAVVIMPGFVAVQGQIAWYGPRLASQGFVVMTMDSNALWDFPSDRSRQQLAALNYLTTKSPVKSRIDPNRLALMGWSMGGGGTLESAAANPSLKAAIPLAPWDITNPGDQISVPTMIFGADGDTVAPVSTFTRPAYDALTNTHDKAFVELKGADHFTFASPNTTVAKYSISWLKRFVDNDTRYDQFLCPIPN [TEP056], GPGMEGNPYQRGPAPTTASIEAPTGAFAVSNASVPGGNGFGGGTLTYPTDTSQGTFGAVVVTPGFLSPEMKWYGPRLASQGFVVLTIATNTAVDQPGARAAQMLAALRYLVEQSPVKNRVDGSRLAVMGHSMGGGGSLEAAEAYPALKAAIPLEPWDLGKSFSAVRTPTLIVGGQSDWIAPVGQHAVPFYNSIPAGVNKAYIELAGGSHFVPMSPNVTIAKYSIAWLKRFVDNDTRYDQFLCPVPQAAALSVSKGTCPHT [TEP175], GPTDFQRGPAPTEQSITAERGPFATAQTTVDGPNFNKGTAYYPTDTSQGTFGAVAISPGFASPEAVVSWYGPRLASQGFVVLTLETNSGSDLPDSRATQLVNALDFLVQSSSVKDRIDPNRLAVMGHSMGGGGSLKASELRPSLKAAIPLMPWNNDKTWQGDRVPTMIMGAQNDAIASPASHAKPFYDSLTSAPEKAYLELRSEGHLVAVSPNVTIAKYSIAWLKRFVDEDVRYEQFLCPAPTANLQISEYRNTCPTG [DP025], GPYQVAYYSSYPPVPEFSAATIYFPANKGEDFAGVAISPGFVESQENMSWWGRHLASHGFAVLTLDTNELRDNPSLRADALMAAIEVLRNEGDRMGSTLRGKILKDRMAIMGHSMGGGGTLIAANAHSADLKAAIPFTPWQPDGDFSTISIPTLVIAGENDRIAVMDIHGASLSTIHHEGDEGV [TEP125], GQSCDSLLLQSITNPGPFPVNNIDENSGIRNGPNYNGSTIYYPANNVNTLYSSIIMVPGFMNTELTIQNWGPFFASHGIITMTIGANGLTDTHIQRRDALLDAIVSLKNENQRVASPLFGKIDTFSIAVGGVSKGGGGAQLVPAIDLSIKAIVSLYPWLDNPTSSDLNHSVPVIIISGQLDALAPPSLHADIHYNLTPNTTNKLKYEVAFGTHDVISGPNGGNGEVGIRVISWLQNFLLSDSCYCPITILDASTSSSYITNVVCSNTTVGISQLEPYFLKKVLKIIDVLGREAEGNKNEPLFYIYNDGTVEKKIIIE [TEP017], GRMDSNVIDASGYSDLSLSFDRTTSGLDFGESGRVSVSINGGSFTVLESLRRASGRTTLQLGSSADNSSIQIRYQTFASSFYEIYTIDNIVIEGNSDSPPPPPPTGDLAAIGAYLETGGTATTPDQFSFTNTGDINIDSLTIDLSGGNASPVFDPNGVSFTVTGSDNVGFSGNFGLSGNSLLTLNFIDFGPGETFSFSGDLDDSNGSYTTGADVMGAELTVSASGNPSVSASFTVDSSNADRAVVNIGGSTPPPPIGGGCGPDPTVASLEASTGPFSFSNIDVPSSAQGFRNGTIYYPTNAPSDCTFGVISVVPGFLANESSIDWWGPRLASHGFIVITINTNTITDQPNSRALQSIAALNYAVNLGNSSSSAIGGKVDSSKQGVMGWSMGGGGALRAAADNPYLKAAMPQAPFNSGPNDFDEITVPTLIIACENDTVASVGIHASPFYNAISSTTEKGFLEINNGNHSCANGGSNRDILGKYGVSWMKRFMDDDTRYSQFLCDVNHTSDSAISDYRENCPY [TEP172], HAPAHAPAHQPVVAHHHAPFAVRTTVVPKTAVKAFGGGVIYTPQDTGKAVLGAVVITPGFTDTNADEKELAELVASQGFVAFAIDTLDTGDLPDQRATEILAAADYLTGQSAVRSEVSAKDVGLIGYSFGGGGTMQAAQARPSIKAAIGLMPFDFPPASDPNAQYPAYPKLTTPTLVITGQKDDVADPADFGKPAYDSIPGGTPKQYLELKGLDHYAGEHTPVAAIRNAVTAFLKRYLDGNSAYAKLICPAPKVGGPITASYSSCPKG [ESM190], HAPAPQPVVVHHHAPFAVRTTVVPKTAVKAFGGGVIYTPQDTGKPVLGAVVITPGFTNTNADEKELGQLVASQGFVAFVIDTLDTGDLPAQRATEILAATDYLTGQSAVRSEVSAKDVGLIGYSFGGGGTMQAAQSRPSIKAAIGLMPFDVPPASDPHALYATYPKLTTPTLVITGQKDEVARPKDFGKPAYDSIPAGTPKQYLELKGLDHSAGEHAPVAAIRNAVTAFLKRYLDGNSAYAKFICPAPKVGGPISVSLSSCPKG [ESM155], HAPVHQPAVAHHHAPFAVRTTAVPKTAVTTFGGGVIYTPQDTGKAVLGAVVITPGFTDTNADEKEMAELVASQGFVAFAIDTLDTSDLPAQRSTEILAAADYLTGQSAVKSQVSAKDVGLIGYSFGGGGTMEAAQARPSIKAAIGLMPFDFPDANDPNAQYATYPKLTTPTLVITGEKDDVATPKDYGKPAYDSIPAGTPKQYLELKGLGHGAGEHVPVPTIRNAVTAFLKRYLDGNSAYAKFICPAPKVGGPISVSLSSCPKG [TEP026], HGFNGGYIYYPTDTSQTFGAVAIVPAYTALFADEEAWMGPRLASFGFVVIGIETNSREDWDRARGAQLLAGLDYLTQHSAVRTRIDARRLAVIGHSMGGGGAFAAAARRPSLRAVVGLTPYFPSGDLATIRVPTLIIGGQNDTTVTPSYLERLYASLPTRTPSAYVMLADADHLFPTKPNPDQMRVLVPWLKIFVDKDVRYTRFLCPLADRSGISQYQVTCPLVPTV [TEP043], IENGPAPTFSSVQADGPFAVSTQTVRGSGFGGGTVYSPNTAGKYAVVAVCPGFTATQTSIALISRRLATHGFVVVTINTNTVYDYPASRANQLLAALRTVTALTTGPVAGKMDTSRQAVSGWSMGGGGAMLAAGMTPGLKAGVAFAPWSLTNNVGSSAVPMAYLAGTADTVAPASVHSSVFYNATPATTKKLIGVIQGADHYFPGTASQPASYTQVAWMKRFLDGDTRYSQFLNGDTRFATFRSTGPF [ESM109], IENGPAPTLADLQKDGPYAVTSQVVKGSGFGGGTVYSPNTAGKYALVAVCPGFVSPQSSMTDMSKRLATHGFVVVAITTNTLFDFPSSRATQLLAALKTVAALNTGAAAGKIDITRQVVSGWSMGGGGTLEAAGVTPGLTAAVAFAPWDTATTKMKTLTVPVAIFGGTNDTIAPVSGHSQKFYDIIPATTKKMLAVITGADHFFPTKASEPTSYSNISWVKRFADGDTRYSQFLNGQDAALASFTSTGPF [ESM138], IRETRVSSSVRGFGGGTIYYPTGTSGTMGAIVVIPGFVSPESSIAWWGPKLASHGFVVMTIATNRTTDQPSSRATQINAALDYLISQNSTSGSPVRNMIDTDRLGVMGWSMGGGGTLRVASQNRLKAAIPLAPYDTISFRNVDAPTLIFGCESDTVAPVRNHASPFYNQIPAGTDKAFVELNGGSHTCANGGNQYLSLIHI [ESM057], ITPPPDDDGNNGGGDTCQQDCGFERGPNPTVASLESRSGPFSVRTSSVSSRVSGFGGGTIHYPTGQTGTMGAIVVIPGFVSAESSIAWWGTQLAAHGFVVMTIDTNSGTDQPPSRARQINAALDYLVSQNTASGSPVRGMIDPSRLGVAGWSMGGGGTLRVATEGRIKAAMPLAPWDTGSTQFRSVKAQTLIFACESDAIAPVNSHASPFYNALPNNINKAFVEISRGSHYCANGGNSNNSLLSRLGVSWMKLHLDQDQRYNQFICGPRHESDRSISEYRGNCSN [ESM115], IYTMVDTLSLHDALPISQYRKIPDSKYHLFIKRFYKGFLNLSLWEVRYMSNRLFRARRTVFSVLILFAFMISFVAAIPGVSYASPPIVRYDYAPGKYSGNGPYSYSTYQLPGWSHGATVYYPTNASAPFSGIVFCPPYTGTQIMFRDWGPFFASHGIVLVTMDTSSILISVDERAVEQRTVLNLLKAENSRSGSPLYQKLDTDRVGAMGWSMGGGATWINSAEYPGLKTAMSLAGHNLTAININSKGFGTQCPTIIFCGALDTTYLGGMLQSETVYYNIPSGVPKVYYEVGTAGHFVWGGPTDANDHVAELALAFQKTFLDGDDRWEGFIEKPRFDYLSTFRSRN [TEP185], LKADGPYAVSSQTVKGNGFGAGTVYSPNTPGKYAVVAVCPGFVSAESSMTAISKRLATHGFVVVTIATNTLFDFPSSRATQLLAALKTVTALTTGPVAGKMDTSRQGVSGWSMGGGGTLEAAGATPGLVSAVAYAPWDTSTTKMKVNKVPVAIIGGSADTVASVSAHSQKFYDAIPATTPKMLPVINGADHFFPTKASEPASYHNI [ESM072], LQMQSLINIGPLQISEINESMGLRNGTDYNGATIYYPINQNNLSSIVLVPGFMNTELTIQNWGPFFASHGIITMTIGTNSLTDTHVQRRDALFDAIISLKQENQRIASPLFGKLDTSSIAVGGFSKGGGGAQLLAKFDPSLKAVVALYPWLENVTASDLEHTVPLIIISGQLDAIAPPFLHADIQYNLTPMTTKKLKYEVAFASHDAISGPYAGNGEVGARVLSWLNTFLVTDSCYCPLLLEQPITSSSYTTNIVCSNLFTNIYESNKSYSKEIIEIRDLYGRKVKFSNSRILIYIYNDGSYEKKITL [TEP016]
